± gives the standard deviation of the averaged measurements.
B1: library; a variant is named by its letters at N, in order (parent)
chain: GCUGUCACCGGAAUACCAGCAUCGUCUUGAUGCCCUUGGAAGUCCGGUCUGAUGAGUCCNNNNNGGACGAAACAGC

Key:
theophylline [1] = variants of: B1; test: FACS-Seq fitted mean relative fluorescence mCherry/BFP without ligand (log10 relative fluorescence); higher = higher reporter protein expression; conditions: HEK293T, ligand present: no
Protocol: (§1)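 Hammerhead (sTRSV) ribozyme switch libraries with a ligand aptamer grafted on stem I and a randomized N4-6 loop II, cloned into the 3' UTR of mCherry and transiently transfected into HEK293T cells; RNA-Seq 72 h post transfection with ligand added 1 h before transfection; RNA read count / plasmid DNA read count normalized to the non-cleaving sTRSVctl (x100), log10; sequences with >100 DNA reads. FACS-Seq: lentiviral library sorted into 6 bins after 48 h ligand, log-normal fit mean of mCherry/BFP scaled to controls. Printed sequences are partial switch sequences.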

theophylline [2] = variants of: B1; test: normalized RNA/DNA level with ligand (relative to sTRSVctl = 100) (log10 (% of sTRSVctl)); higher = less ribozyme self-cleavage, higher mRNA level; conditions: ligand concentration (+) RNA-Seq: 5 mM, HEK293T, reporter: mCherry (pCS4076), ligand present: yes
Protocol: as §1

theophylline [3] = variants of: B1; test: normalized RNA/DNA level without ligand (relative to sTRSVctl = 100) (log10 (% of sTRSVctl)); higher = less ribozyme self-cleavage, higher mRNA level; conditions: HEK293T, reporter: mCherry (pCS4076), ligand present: no
Protocol: as §1

theophylline [4] = variants of: B1; test: FACS-Seq fitted mean relative fluorescence mCherry/BFP with ligand (log10 relative fluorescence); ligand concentration (+) FACS-Seq: 1 mM; higher = higher reporter protein expression; conditions: HEK293T, ligand present: yes
Protocol: as §1

| Variant | FACS-Seq fitted mean (log10) (theophylline [1]) | normalized RNA/DNA level with ligand (log10) (theophylline [2]) | normalized RNA/DNA level without ligand (log10) (theophylline [3]) | FACS-Seq fitted mean (log10) (theophylline [4]) |
| --- | --- | --- | --- | --- |
| GCUGUCACCGGAAUACCAGCAUCGUCUUGAUGCCCUUGGAAGUCCGGUCUGAUGAGUCCCAUGCGGACGAAACAGC [CAUGC] | 0.705 ± 0.09 | 2.03 ± 0.085 | 1.98 ± 0.071 | 0.633 ± 0.01 |
| GCUGUCACCGGAAUACCAGCAUCGUCUUGAUGCCCUUGGAAGUCCGGUCUGAUGAGUCCAUAACGGACGAAACAGC [AUAAC] | 0.876 ± 0.022 | 2.05 ± 0.13 | 1.96 ± 0.15 | 0.881 ± 0.11 |
| GCUGUCACCGGAAUACCAGCAUCGUCUUGAUGCCCUUGGAAGUCCGGUCUGAUGAGUCCCGGCAGGACGAAACAGC [CGGCA] | 0.507 ± 0.017 | 1.96 ± 0.046 | 1.485 ± 0.0076 | 0.7564 ± 0.0075 |
| GCUGUCACCGGAAUACCAGCAUCGUCUUGAUGCCCUUGGAAGUCCGGUCUGAUGAGUCCGUUUGGGACGAAACAGC [GUUUG] | 0.972 ± 0.24 | 1.96 ± 0.091 | 1.77 ± 0.058 | 0.929 ± 0.17 |
| GCUGUCACCGGAAUACCAGCAUCGUCUUGAUGCCCUUGGAAGUCCGGUCUGAUGAGUCCUCAACGGACGAAACAGC [UCAAC] | 0.851 ± 0.1 | 1.89 ± 0.03 | 1.79 ± 0.049 | 0.879 ± 0.062 |
| GCUGUCACCGGAAUACCAGCAUCGUCUUGAUGCCCUUGGAAGUCCGGUCUGAUGAGUCCCACUCGGACGAAACAGC [CACUC] | 1 ± 0.12 | 2 ± 0.11 | 1.98 ± 0.096 | 0.969 ± 0.1 |
| GCUGUCACCGGAAUACCAGCAUCGUCUUGAUGCCCUUGGAAGUCCGGUCUGAUGAGUCCUUGUAGGACGAAACAGC [UUGUA] | 0.431 ± 0.12 | 1.88 ± 0.029 | 1.53 ± 0.21 | 0.555 ± 0.051 |
| GCUGUCACCGGAAUACCAGCAUCGUCUUGAUGCCCUUGGAAGUCCGGUCUGAUGAGUCCAAAUUGGACGAAACAGC [AAAUU] | 0.984 ± 0.045 | 2.02 ± 0.1 | 1.82 ± 0.082 | 1.05 ± 0.06 |
| GCUGUCACCGGAAUACCAGCAUCGUCUUGAUGCCCUUGGAAGUCCGGUCUGAUGAGUCCUCUGGGGACGAAACAGC [UCUGG] | 0.976 ± 0.062 | 2.057 ± 0.0087 | 2.01 ± 0.064 | 1.012 ± 0.0062 |
| GCUGUCACCGGAAUACCAGCAUCGUCUUGAUGCCCUUGGAAGUCCGGUCUGAUGAGUCCACUGUGGACGAAACAGC [ACUGU] | 0.698 ± 0.1 | 2.027 ± 0.011 | 1.89 ± 0.087 | 0.626 ± 0.07 |
| GCUGUCACCGGAAUACCAGCAUCGUCUUGAUGCCCUUGGAAGUCCGGUCUGAUGAGUCCACUCGGGACGAAACAGC [ACUCG] | 1.06 ± 0.14 | 1.95 ± 0.2 | 1.89 ± 0.11 | 1.17 ± 0.035 |
| GCUGUCACCGGAAUACCAGCAUCGUCUUGAUGCCCUUGGAAGUCCGGUCUGAUGAGUCCGCACUGGACGAAACAGC [GCACU] | 1.01 ± 0.018 | 1.966 ± 0.019 | 1.86 ± 0.022 | 1 ± 0.083 |
| GCUGUCACCGGAAUACCAGCAUCGUCUUGAUGCCCUUGGAAGUCCGGUCUGAUGAGUCCAUGGCGGACGAAACAGC [AUGGC] | 0.932 ± 0.11 | 2.008 ± 0.0029 | 1.88 ± 0.085 | 0.903 ± 0.041 |
| GCUGUCACCGGAAUACCAGCAUCGUCUUGAUGCCCUUGGAAGUCCGGUCUGAUGAGUCCCGAUAGGACGAAACAGC [CGAUA] | 0.099 ± 0.017 | 1.946 ± 0.014 | 1.21 ± 0.36 | 0.491 ± 0.0076 |
| GCUGUCACCGGAAUACCAGCAUCGUCUUGAUGCCCUUGGAAGUCCGGUCUGAUGAGUCCAUCGAGGACGAAACAGC [AUCGA] | 0.863 ± 0.17 | 2.02 ± 0.087 | 1.76 ± 0.19 | 0.825 ± 0.13 |
| GCUGUCACCGGAAUACCAGCAUCGUCUUGAUGCCCUUGGAAGUCCGGUCUGAUGAGUCCCGGCCGGACGAAACAGC [CGGCC] | 0.745 ± 0.024 | 2.06 ± 0.1 | 2.03 ± 0.1 | 0.6421 ± 0.002 |
| GCUGUCACCGGAAUACCAGCAUCGUCUUGAUGCCCUUGGAAGUCCGGUCUGAUGAGUCCAUAGAGGACGAAACAGC [AUAGA] | 0.592 ± 0.06 | 1.958 ± 0.018 | 1.57 ± 0.15 | 0.972 ± 0.13 |
| GCUGUCACCGGAAUACCAGCAUCGUCUUGAUGCCCUUGGAAGUCCGGUCUGAUGAGUCCUAAUUGGACGAAACAGC [UAAUU] | 0.64 ± 0.039 | 2 ± 0.023 | 1.84 ± 0.062 | 0.613 ± 0.056 |
